Positions of bridges follow the written chain, without caps; N, C: chain ends. Non-standard residues stand in square brackets, D forms with d. Groups on a side chain read outwards from the residue. 2Nal = N[C@@H](Cc1ccc2ccccc2c1)C(=O)O; AEF = NCCOc1ccc(C[C@H](N)C(=O)O)cc1; αMeL = CC(C)C[C@](C)(N)C(=O)O; Pen = CC(C)(S)[C@H](N)C(=O)O; dAbu = CC[C@@H](N)C(=O)O; Thp = NC1(C(=O)O)CCOCC1; Abu = CC[C@H](N)C(=O)O
T1: interleukin-23 receptor (IL-23R) (human, UniProt Q5VWK5 24-629)
T1 sequence (looked up): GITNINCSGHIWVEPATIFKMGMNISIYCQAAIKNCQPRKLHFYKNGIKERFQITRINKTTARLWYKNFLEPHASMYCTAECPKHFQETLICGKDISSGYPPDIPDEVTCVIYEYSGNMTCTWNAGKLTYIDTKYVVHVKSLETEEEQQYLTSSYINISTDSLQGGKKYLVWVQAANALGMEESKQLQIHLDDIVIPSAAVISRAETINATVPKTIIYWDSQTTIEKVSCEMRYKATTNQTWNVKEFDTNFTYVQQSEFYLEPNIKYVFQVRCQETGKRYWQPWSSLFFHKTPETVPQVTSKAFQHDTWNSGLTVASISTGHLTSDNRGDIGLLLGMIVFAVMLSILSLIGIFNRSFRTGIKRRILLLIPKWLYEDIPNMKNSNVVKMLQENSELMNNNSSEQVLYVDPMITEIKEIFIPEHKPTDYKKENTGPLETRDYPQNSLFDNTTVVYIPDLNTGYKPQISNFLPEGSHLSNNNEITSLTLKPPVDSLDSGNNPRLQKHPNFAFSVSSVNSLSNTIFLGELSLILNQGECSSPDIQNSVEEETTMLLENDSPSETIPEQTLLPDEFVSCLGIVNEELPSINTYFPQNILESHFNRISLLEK


target: T1, interleukin-23 receptor (IL-23R); assay: cell-based or functional assay; conditions: not given

Row | IC50, pStat3 HTRF (nM) | Molecule
1 | < 1 nM | Ac-[dK]([Phe-Ac])[Pen]NTWK(Ac)[Pen][AEF][2Nal][αMeL]K(Ac)NN-NH2 (disulfide 2-7 (inferred)) [SEQ ID NO 231]
2 | < 1 nM | Ac-[dK]([Ser-Ac])[Pen]NTWK(Ac)[Pen][AEF][2Nal][αMeL]K(Ac)NN-NH2 (disulfide 2-7 (inferred)) [SEQ ID NO 233]
3 | < 1 nM | Ac-K([Pro-Ac])[Pen]NTWK(Ac)[Pen][AEF][2Nal][αMeL]K(Ac)NN-NH2 (disulfide 2-7 (inferred)) [SEQ ID NO 229]
4 | < 1 nM | Ac-[dK]([Pro-Ac])[Pen]NTWK(Ac)[Pen][AEF][2Nal][αMeL]K(Ac)NN-NH2 (disulfide 2-7 (inferred)) [SEQ ID NO 236]
5 | < 1 nM | Ac-K([Tyr-Ac])[Pen]NTWK(Ac)[Pen][AEF][2Nal][αMeL]K(Ac)NN-NH2 (disulfide 2-7 (inferred)) [SEQ ID NO 225]
6 | < 1 nM | Ac-K([Glu-Ac])[Pen]NTWK(Ac)[Pen][AEF][2Nal][αMeL]K(Ac)NN-NH2 (disulfide 2-7 (inferred)) [SEQ ID NO 223]
7 | < 1 nM | XNTWKXXXXKNNG (Ac-[Pen]-NTW-[Lys(Ac)]-[Pen]-[Phe[4-(2-aminoethoxy)]-[2-Nal]-[α-MeLeu]-[Lys(Ac)]-NNG-NH2) [SEQ ID NO 195]
8 | < 1 nM | Ac-K([Leu-Ac])[Pen]NTWK(Ac)[Pen][AEF][2Nal][αMeL]K(Ac)NN-NH2 (disulfide 2-7 (inferred)) [SEQ ID NO 228]
9 | < 1 nM | Ac-[dK]([Tyr-Ac])[Pen]NTWK(Ac)[Pen][AEF][2Nal][αMeL]K(Ac)NN-NH2 (disulfide 2-7 (inferred)) [SEQ ID NO 232]
10 | < 1 nM | Ac-K([Arg-Ac])[Pen]NTWK(Ac)[Pen][AEF][2Nal][αMeL]K(Ac)NN-NH2 (disulfide 2-7 (inferred)) [SEQ ID NO 227]
11 | < 1 nM | XNTWQXXXXKNNX (Ac-[Pen]-NTWQ-[Pen]-[Phe[4-(2-aminoethoxy)]-[2-Nal]-[α-MeLeu]-[Lys(Ac)]-NN-[(D)Ile]-NH2) [SEQ ID NO 175]
12 | < 1 nM | XXQTWQCXXXENN (Ac-[(D)Arg]-cyclo[[Abu]-QTWQC]-[Phe[4-(2-aminoethoxy)]-[2-Nal]-[3-cyclohexyl-Ala]-ENN-NH2) [SEQ ID NO 147]
13 | < 1 nM | Ac-[dK]([Glu-Ac])[Pen]NTWK(Ac)[Pen][AEF][2Nal][αMeL]K(Ac)NN-NH2 (disulfide 2-7 (inferred)) [SEQ ID NO 230]
14 | < 1 nM | Ac-K([Phe-Ac])[Pen]NTWK(Ac)[Pen][AEF][2Nal][αMeL]K(Ac)NN-NH2 (disulfide 2-7 (inferred)) [SEQ ID NO 224]
15 | < 1 nM | XNTWKXXXXKNNX (Ac-[Pen]-NTW-[Lys(Ac)]-[Pen]-[Phe[4-(2-aminoethoxy)]-[2-Nal]-[α-MeLeu]-[Lys(Ac)]-NN-[Ahx]-NH2) [SEQ ID NO 197]
16 | < 1 nM | XNTWKXXXXKNNX (Ac-[Pen]-NTW-[Lys(Ac)]-[Pen]-[Phe[4-(2-aminoethoxy)]-[2-Nal]-[α-MeLeu]-[Lys(Ac-(D)Asn)]-NN-[(D)Ile]-NH2) [SEQ ID NO 218]
17 | > 100 nM | XXQTWKCXXXENN (Ac-[(D)Arg]-cyclo[[Abu]-QTW-Lys(isoGlu-Palm)-C]-[Phe[4-(2-aminoethoxy)]-[2-Nal]-[4-amino-4-carboxy-tetrahydropyran]-ENN-NH2) [SEQ ID NO 153]

Row | IC50, pStat3 HTRF (nM) | Molecule
18 | < 1 nM | XNTWKXXXXKNNX (Ac-[Pen]-NTW-[Lys(Ac)]-[Pen]-[Phe[4-(2-aminoethoxy)]-[2-Nal]-[α-MeLeu]-[Lys(Ac)]-NN-[β-Ala]-NH2) [SEQ ID NO 196]
19 | < 1 nM | XXQTWQCXXXENN (Ac-[(D)Arg]-cyclo[[Abu]-QTWQC]-[Phe[4-(2-aminoethoxy)]-[2-Nal]-[α-MeLeu]-ENN-NH2) [SEQ ID NO 138]
20 | < 1 nM | XNTWKXXXXKNNX (Ac-[Pen]-NTW-[Lys(Ac)]-[Pen]-[Phe[4-(2-aminoethoxy)]-[2-Nal]-[α-MeLeu]-[Lys(Ac)]-NN-[Sar]-NH2) [SEQ ID NO 198]
21 | > 100 nM | Ac-[Pen]NTWQ[dAbu][AEF][2Nal][αMeL]K(Ac)NN-NH2 (thioether 1-6) [SEQ ID NO 137]
22 | < 1 nM | XNTWQXXXXKNNY (Ac-[Pen]-NTWQ-[Pen]-[Phe[4-(2-aminoethoxy)]-[2-Nal]-[α-MeLeu]-[Lys(Ac)]-NNY-NH2) [SEQ ID NO 159]
23 | < 1 nM | XNTWQXXXXKNNX ((Ac-[Pen]-NTWQ-[Pen]-[Phe(4-CONH2)]-[2-Nal]-[α-MeLeu]-[Lys(Ac)]-NN-[(D)Lys]-NH2)2-DIG) [SEQ ID NO 184]
24 | < 1 nM | XNTWQXXXXKNNQ (Ac-[Pen]-NTWQ-[Pen]-[Phe[4-(2-aminoethoxy)]-[2-Nal]-[α-MeLeu]-[Lys(Ac)]-NNQ-NH2) [SEQ ID NO 164]
25 | < 1 nM | XNTWQXXXXKNNX (Ac-[Pen]-NTWQ-[Pen]-[Phe[4-(2-aminoethoxy)]-[2-Nal]-[α-MeLeu]-[Lys(Ac)]-NN-[(D)Gln]-NH2) [SEQ ID NO 177]
26 | < 1 nM | Ac-K([Ser-Ac])[Pen]NTWK(Ac)[Pen][AEF][2Nal][αMeL]K(Ac)NN-NH2 (disulfide 2-7 (inferred)) [SEQ ID NO 226]
27 | < 1 nM | Ac-[dK]([Leu-Ac])[Pen]NTWK(Ac)[Pen][AEF][2Nal][αMeL]K(Ac)NN-NH2 (disulfide 2-7 (inferred)) [SEQ ID NO 235]
28 | < 1 nM | XNTWKXXXXKNN (Ac-[Pen]-NTW-[Lys(Ac)]-[Pen]-[Phe[4-(2-aminoethoxy)]-[2-Nal]-[α-MeLeu]-[Lys(Ac)]-NN-NH2) [SEQ ID NO 170]
29 | < 1 nM | XNTWQXXXXKNNR (Ac-[Pen]-NTWQ-[Pen]-[Phe[4-(2-aminoethoxy)]-[2-Nal]-[α-MeLeu]-[Lys(Ac)]-NNR-NH2) [SEQ ID NO 161]
30 | < 1 nM | XXQTWQCXXXENN (Ac-[(D)Arg]-cyclo[[Abu]-QTWQC]-[Phe[4-(2-aminoethoxy)]-[2-Nal]-[Aib]-ENN-NH2) [SEQ ID NO 148]
31 | < 1 nM | XNTWQXXXXKNNS (Ac-[Pen]-NTWQ-[Pen]-[Phe[4-(2-aminoethoxy)]-[2-Nal]-[α-MeLeu]-[Lys(Ac)]-NNS-NH2) [SEQ ID NO 165]
32 | < 1 nM | XNTWQXXXXKNNX (Ac-[Pen]-NTWQ-[Pen]-[Phe[4-(2-aminoethoxy)]-[2-Nal]-[α-MeLeu]-[Lys(Ac)]-NN-[(D)Arg]-NH2) [SEQ ID NO 174]
33 | < 1 nM | Ac-[dK]([Arg-Ac])[Pen]NTWK(Ac)[Pen][AEF][2Nal][αMeL]K(Ac)NN-NH2 (disulfide 2-7 (inferred)) [SEQ ID NO 234]

system: IL-23R-expressing DB cells stimulated with IL-23 (pSTAT3 levels); assay: DB cells IL23R pSTAT3 cell assay (Cisbio HTRF pSTAT3); assay type: cell-based, human; conditions: Table E1, Pen-Pen disulfide peptides, IL-23 0.5 nM, 30 minutes at 37° C.
Description: Human ELISA indicates the IL23-IL23R competitive binding assay described below, Rat ELISA indicates the rat IL-23R competitive binding ELISA assay described below, and pStat3HTRF indicates the DB cells IL-23R pSTAT3 cell assay described below. The peptides depicted in Table E1 are cyclized via a disulfide bridge formed between two Pen residues in these peptides. The peptides depicted in Table E2 are cyclized via a thioether bond between the indicated amino acid residues. Table E2 provides an illustrative structure depicting thioether cyclization, which is indicated in the table by the term “cyclo,” with the cyclic region bracketed immediately following the term “cyclo.” For certain peptides, the residue Abu is present where indicated, whereas in other embodiments, e.g., those related to the non-cyclized form, the Abu may be referred to as a hSer(Cl) or homoSer residue.
DB Cells IL23R pSTAT3 Cell Assay
IL-23 plays a central role in supporting and maintaining Th17 differentiation in vivo. […] This cell assay examines the levels of pSTAT3 in IL-23R-expressing DB cells when stimulated with IL-23 in the presence of test compounds.

Row | IC50 | Molecule
34 | 1 to 10 nM | 8 (Ac-[Pen]NTWQ[Pen][AEF]W[Thp]K(Ac)NN-NH2; disulfide 1-6 (inferred)) [compound 8]

same assay, conditions: Table E2, thioether peptides, IL-23 0.5 nM, 30 minutes at 37° C.

Row | IC50 | Molecule
35 | 1 to 10 nM | 78 (Ac-[dR][Abu]QTWEC[AEF][2Nal][Thp]END-NH2; thioether 2-7) [compound 78]
36 | 10 to 100 nM | 103 (XXQTWVCXXXENN; MOD_RES (1)..(1) D-form arginine; MOD_RES (2)..(2) Abu; (2)..(7) residues cyclosized; MOD_RES (8)..(8) 4-(2-aminoethoxy)-L-phenylalanine; MOD_RES (9)..(9) L-2-Napthylalanine; MOD_RES (10)..(10) 4-amino-4-carboxy-tetrahydropyran) [compound 103]
37 | 10 to 100 nM | 102 (XXQTWTCXXXENN; MOD_RES (1)..(1) D-form arginine; MOD_RES (2)..(2) Abu; (2)..(7) residues cyclosized; MOD_RES (8)..(8) 4-(2-aminoethoxy)-L-phenylalanine; MOD_RES (9)..(9) L-2-Napthylalanine; MOD_RES (10)..(10) 4-amino-4-carboxy-tetrahydropyran) [compound 102]
38 | 1 to 10 nM | 100 (XXQTWWCXXXENN; MOD_RES (1)..(1) D-form arginine; MOD_RES (2)..(2) Abu; (2)..(7) residues cyclosized; MOD_RES (8)..(8) 4-(2-aminoethoxy)-L-phenylalanine; MOD_RES (9)..(9) L-2-Napthylalanine; MOD_RES (10)..(10) 4-amino-4-carboxy-tetrahydropyran) [compound 100]

same assay, conditions: Table L3 (E3), additional peptide inhibitors, IL-23 0.5 nM, 30 minutes at 37° C.

Row | IC50 | Molecule
39 | 1 to 10 nM | 162 (XNTWQXXXXKNNL; MOD_RES (1)..(1) L-Penicillamine; MOD_RES (6)..(6) L-Penicillamine; MOD_RES (7)..(7) 4-(2-aminoethoxy)-L-phenylalanine; MOD_RES (8)..(8) L-2-Napthylalanine; MOD_RES (9)..(9) alpha-methyl-L-Leucine; MOD_RES (10)..(10) …ON) [compound 162]

Source: patent US20200207822A1, “PEPTIDE INHIBITORS OF INTERLEUKIN-23 RECEPTOR AND THEIR USE TO TREAT INFLAMMATORY DISEASES” (Protagonist Therapeutics, Inc., priority 2017, published 2020)
